Patent publication US8895526B2, “Identification of RNAI targets and use of RNAI for rational therapy of chemotherapy-resistant leukemia and other cancers” (Cold Spring Harbor Laboratory, priority 2009, dated 2014)

What was measured:
[1] = test system: immortalized murine embryonic fibroblasts (Mef); test: Pooled negative selection RNAi screening (deep sequencing); type: cell-based; details: deep sequencing reads, on dox compared to initial representation
Text: (§1) In addition to the analysis of single shRNAs for inhibitory effects in vitro and in vivo, the combination of tet-on competent cancer models and tet-regulatable shRNA expression vectors allowing for monitoring shRNA expression through fluorescent and other reporter genes (e.g. TRMPV and derivates) facilitates pooled shRNA negative selection screening (FIG. 37). In such approaches a pool of over 1,000 shRNAs are retrovirally transduced into tet-on competent cancer models (here MLL/AF9+Nras AML) and selected for shRNA containing cells by either drug selection (e.g. G418) or fluorescence-activated cell sorting (FACS). Selected cell populations harboring a library of shRNAs then can be cultured in the absence or presence of doxycyline (off dox and on dox, respectively) or injected into syngeneic recipient mice that are either treated with doxycyline or left untreated.
(§2) The representation of each shRNA within the pool can be effectively assessed by deep sequencing of shRNA cassettes in a given cell population. For this, genomic DNA is extracted from leukemia cells containing the shRNA pool, and the shRNA guide or passenger strand (21-22 target gene specific nucleotides of the shRNA) by PCR using primers specific for common sequences flanking the gene specific part of the shRNA (e.g. miR30 19 nt loop and miR30 common 3′ sequence). The primers also contain 5′-adapters required for deep sequencing (e.g. for Illumina/Solexa sequencing primers are p5+mir3: 5′-[…]-3′ (SEQ ID NO: 215) and p7+Loop: 5′-[…]-3′ (SEQ ID NO: 216)). Deep sequencing is subsequently performed using a primer binding the flanking nucleotide sequence next to the target gene specific part of the shRNA (for Illumina/Solexa platforms the primer is mir30EcoR1Seq: 5′-TAGCCCCTTGAATTCCGA GGCAGTAGGCA-3′ (SEQ ID NO: 217)).
(§3) The use of shRNA vectors that allow for monitoring of shRNA expression through fluorescent and other reporter genes (e.g. TRMPV) in combination with tet-on competent mouse models facilitates the isolation of pure shRNA expressing cell populations (e.g. by FACS, for TRMPV by sorting of Venus/dsRed double positive cells (FIG. 38). This selection of shRNA expressing cells prior to DNA isolation strongly reduces the background caused by cell populations with insufficient shRNA induction, which are predicted to contain genomic representation of the whole shRNA library without shRNA specific shifts in representation. The final readout is based on the comparison of shRNA representation (i.e. deep sequencing read numbers) before the assay (t0) or from cell populations left without doxycycline treatment (off dox) to those where shRNA were induced and cells subsequently sorted for shRNA expressing cells (on dox). shRNA with inhibitory effects are predicted to loose representation (show less reads) on dox compared to t0 and off dox.
(§4) This pooled is RNAi screening strategy can be applied to rapidly survey inhibitory effects of large pools of shRNAs (˜1000 at a time) in different tet-on competent cancer models and normal control cells (FIG. 39). For example, a pool of 1166 shRNAs targeting 836 predominantly druggable genes associated with MLL fusion proteins in human leukemia and mouse models of MLL/AF9-induced AML (MLL cure library) was analyzed in pooled negative selection screening in tet-on competent MLL/AF9+Nras AML and immortalized murine embryonic fibroblasts (Mef) in parallel. To establish and validate this screening approach, the pool also contained 64 control shRNAs each of which have been previously analyzed for inhibitory effects in both AML cells and Mefs using the same experimental system (FIG. 40).
(§5) After pooling of 1166 experimental and 64 control shRNAs the presence of shRNAs was verified by deep sequencing of shRNAs within the plasmid vector pool (FIG. 41). […]

[2] = test system: tet-on competent MLL/AF9+Nras AML; test: as above; type: cell-based, mouse; details: deep sequencing reads, On Dox compared to T0
Text: as §1, §2, §3, §4, §5

B1: Trpm4.2813: shRNA, SEQ ID NO: 188 (nucleic acid)
chain: TGCTGTTGACAGTGAGCGACAAGATTGTCATAGTGAGCAATAGTGAAGCCACAGATGTATTGCTCACTATGACAATCTTGGTGCCTACTGCCTCGGA
- Fold depletion in Mef [1]: 2.33 Fold
- Fold depletion in AML [2]: 20.52 Fold

B2: Park2.2222: shRNA, SEQ ID NO: 158 (nucleic acid)
chain: TGCTGTTGACAGTGAGCGCAACAGAGAAAGTGCCTATAAATAGTGAAGCCACAGATGTATTTATAGGCACTTTCTCTGTTATGCCTACTGCCTCGGA
- Fold depletion in Mef [1]: 1.32 Fold
- Fold depletion in AML [2]: 11.36 Fold

B3: Dio2.2087: shRNA, SEQ ID NO: 112 (nucleic acid)
chain: TGCTGTTGACAGTGAGCGCCAGGAATTTGGTTAAATGGAATAGTGAAGCCACAGATGTATTCCATTTAACCAAATTCCTGTTGCCTACTGCCTCGGA
- Fold depletion in Mef [1]: 2.52 Fold
- Fold depletion in AML [2]: 20.52 Fold

B4: Plod3.3138: shRNA, SEQ ID NO: 169 (nucleic acid)
chain: TGCTGTTGACAGTGAGCGACTCAGCCTCACTTTCAATAAATAGTGAAGCCACAGATGTATTTATTGAAAGTGAGGCTGAGGTGCCTACTGCCTCGGA
- Fold depletion in Mef [1]: 0.71 Fold
- Fold depletion in AML [2]: 21.28 Fold

B5: Acsl1.3559: shRNA, SEQ ID NO: 88 (nucleic acid)
chain: TGCTGTTGACAGTGAGCGCCAGCATTTCACTTTACTGCAATAGTGAAGCCACAGATGTATTGCAGTAAAGTGAAATGCTGTTGCCTACTGCCTCGGA
- Fold depletion in Mef [1]: 1.45 Fold
- Fold depletion in AML [2]: 10.18 Fold

B6: Vnn3.345: shRNA, SEQ ID NO: 189 (nucleic acid)
chain: TGCTGTTGACAGTGAGCGAACGCCAGAAGATGGAATCTATTAGTGAAGCCACAGATGTAATAGATTCCATCTTCTGGCGTCTGCCTACTGCCTCGGA
- Fold depletion in Mef [1]: 2.59 Fold
- Fold depletion in AML [2]: 10.19 Fold

B7: F10.1044: shRNA, SEQ ID NO: 117 (nucleic acid)
chain: TGCTGTTGACAGTGAGCGACACCATCTTGAATGAGTTCTATAGTGAAGCCACAGATGTATAGAACTCATTCAAGATGGTGCTGCCTACTGCCTCGGA
- Fold depletion in Mef [1]: 1.25 Fold
- Fold depletion in AML [2]: 10.52 Fold

B8: Slc15a3.1086: shRNA, SEQ ID NO: 180 (nucleic acid)
chain: TGCTGTTGACAGTGAGCGCCTGGTTCTATTGGAGCATCAATAGTGAAGCCACAGATGTATTGATGCTCCAATAGAACCAGTTGCCTACTGCCTCGGA
- Fold depletion in Mef [1]: 2.32 Fold
- Fold depletion in AML [2]: 10.29 Fold

B9: Gab3.527: shRNA, SEQ ID NO: 125 (nucleic acid)
chain: TGCTGTTGACAGTGAGCGCGACGGAAACACTAATAGTGTATAGTGAAGCCACAGATGTATACACTATTAGTGTTTCCGTCATGCCTACTGCCTCGGA
- Fold depletion in Mef [1]: 0.46 Fold
- Fold depletion in AML [2]: 10.22 Fold

B10: EG277089.605: shRNA, SEQ ID NO: 115 (nucleic acid)
chain: TGCTGTTGACAGTGAGCGCCTCAATCTCATTGGTGGCTTATAGTGAAGCCACAGATGTATAAGCCACCAATGAGATTGAGATGCCTACTGCCTCGGA
- Fold depletion in Mef [1]: 2.02 Fold
- Fold depletion in AML [2]: 25.37 Fold

B11: Flot2.1039: shRNA, SEQ ID NO: 120 (nucleic acid)
chain: TGCTGTTGACAGTGAGCGACAAGGTGACATCAGAAGTAAATAGTGAAGCCACAGATGTATTTACTTCTGATGTCACCTTGCTGCCTACTGCCTCGGA
- Fold depletion in Mef [1]: 2.72 Fold
- Fold depletion in AML [2]: 10.89 Fold

B12: Gdi1.1120: shRNA, SEQ ID NO: 129 (nucleic acid)
chain: TGCTGTTGACAGTGAGCGCCAACAGGAAGTCAGACATCTATAGTGAAGCCACAGATGTATAGATGTCTGACTTCCTGTTGATGCCTACTGCCTCGGA
- Fold depletion in Mef [1]: 1.98 Fold
- Fold depletion in AML [2]: 24.81 Fold

B13: EG408196.85: shRNA, SEQ ID NO: 116 (nucleic acid)
chain: TGCTGTTGACAGTGAGCGCAGCGAGAACCAGTGAGAAATATAGTGAAGCCACAGATGTATATTTCTCACTGGTTCTCGCTTTGCCTACTGCCTCGGA
- Fold depletion in Mef [1]: 0.25 Fold
- Fold depletion in AML [2]: 20.79 Fold

B14: Pgam1.1811: shRNA, SEQ ID NO: 164 (nucleic acid)
chain: TGCTGTTGACAGTGAGCGCAAGGAGTGATGTGCAATACTTTAGTGAAGCCACAGATGTAAAGTATTGCACATCACTCCTTTTGCCTACTGCCTCGGA
- Fold depletion in Mef [1]: 0.17 Fold
- Fold depletion in AML [2]: 20.18 Fold

B15: Kcnh7.2642: shRNA, SEQ ID NO: 134 (nucleic acid)
chain: TGCTGTTGACAGTGAGCGCATGGTTCATCTTTATGCCAAATAGTGAAGCCACAGATGTATTTGGCATAAAGATGAACCATTTGCCTACTGCCTCGGA
- Fold depletion in Mef [1]: 0.92 Fold
- Fold depletion in AML [2]: 10.58 Fold

B16: Gdi1.2355: shRNA, SEQ ID NO: 130 (nucleic acid)
chain: TGCTGTTGACAGTGAGCGACTCTAGTATATTTCACAGAAATAGTGAAGCCACAGATGTATTTCTGTGAAATATACTAGAGCTGCCTACTGCCTCGGA
- Fold depletion in Mef [1]: 2.86 Fold
- Fold depletion in AML [2]: 9.92 Fold

B17: Syt17.721: shRNA, SEQ ID NO: 184 (nucleic acid)
chain: TGCTGTTGACAGTGAGCGCCGAGGAGATCATGTCCAAGTATAGTGAAGCCACAGATGTATACTTGGACATGATCTCCTCGTTGCCTACTGCCTCGGA
- Fold depletion in Mef [1]: 0.86 Fold
- Fold depletion in AML [2]: 10.25 Fold

B18: Atp6v0d1.481: shRNA, SEQ ID NO: 93 (nucleic acid)
chain: TGCTGTTGACAGTGAGCGACACCAGCGTTCAATAGCTGAATAGTGAAGCCACAGATGTATTCAGCTATTGAACGCTGGTGCTGCCTACTGCCTCGGA
- Fold depletion in Mef [1]: 1.90 Fold
- Fold depletion in AML [2]: 12.03 Fold

B19: Hpgd.1070: shRNA, SEQ ID NO: 132 (nucleic acid)
chain: TGCTGTTGACAGTGAGCGCAAACTAGGTTATAACCTATAATAGTGAAGCCACAGATGTATTATAGGTTATAACCTAGTTTTTGCCTACTGCCTCGGA
- Fold depletion in Mef [1]: 1.10 Fold
- Fold depletion in AML [2]: 10.43 Fold

B20: Slc6a13.1196: shRNA, SEQ ID NO: 182 (nucleic acid)
chain: TGCTGTTGACAGTGAGCGACTGGGACTAGATAGCCAGTTTTAGTGAAGCCACAGATGTAAAACTGGCTATCTAGTCCCAGGTGCCTACTGCCTCGGA
- Fold depletion in Mef [1]: 1.52 Fold
- Fold depletion in AML [2]: 9.77 Fold

B21: Centa1.1387: shRNA, SEQ ID NO: 105 (nucleic acid)
chain: TGCTGTTGACAGTGAGCGCCAGAACCTCATTAAAGTTGAATAGTGAAGCCACAGATGTATTCAACTTTAATGAGGTTCTGATGCCTACTGCCTCGGA
- Fold depletion in Mef [1]: 0.77 Fold
- Fold depletion in AML [2]: 11.44 Fold

B22: Plod3.2501: shRNA, SEQ ID NO: 168 (nucleic acid)
chain: TGCTGTTGACAGTGAGCGAACCGTTGATATCCACATGAAATAGTGAAGCCACAGATGTATTTCATGTGGATATCAACGGTGTGCCTACTGCCTCGGA
- Fold depletion in Mef [1]: 2.62 Fold
- Fold depletion in AML [2]: 12.30 Fold

B23: Ncf1.2370: shRNA, SEQ ID NO: 150 (nucleic acid)
chain: TGCTGTTGACAGTGAGCGCCAGAAGATCAATGCACATAAATAGTGAAGCCACAGATGTATTTATGTGCATTGATCTTCTGTTGCCTACTGCCTCGGA
- Fold depletion in Mef [1]: 2.33 Fold
- Fold depletion in AML [2]: 10.06 Fold

B24: Plcb2.3742: shRNA, SEQ ID NO: 167 (nucleic acid)
chain: TGCTGTTGACAGTGAGCGCAGGGACCTTAATACTCAGATATAGTGAAGCCACAGATGTATATCTGAGTATTAAGGTCCCTTTGCCTACTGCCTCGGA
- Fold depletion in Mef [1]: 2.25 Fold
- Fold depletion in AML [2]: 10.81 Fold
